We go through 41 sequences from the nanobody polyreactivity screen of Harvey et al. (2022).

The series in a line: yeast display, Sf9 membrane polyspecificity reagent, FACS + sequencing; frameworks hold sequencing errors. Summed up: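 After 36–48 hours of galactose induction, yeast (Saccharomyces cerevisiae BJ5465) displaying a synthetic nanobody library were stained at 4 °C for 1 hour with 10% biotinylated, detergent-solubilized Sf9 membrane reagent. Streptavidin microbeads enriched the stained cells before FACS sorting into low and high (top ~1%) gates on anti-HA and streptavidin fluorescence. Each clone's polyreactivity label reflects its gate of origin.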
Turning to “QVQLVESGGGLVQAGGSLRLSCAASGSISAVNTMGWYRQAPGKERELVATISYSTASTYYADSVKGRFTISRDNAKITVYLQMNCLKPEDTAVYFCAADAYFDTWYDYWGQGTQVTVSS”, the “polyreactivity (PSR sort gate)” value is “low polyreactivity”.

On to “QVQLVESGGGLVQAGGSLRLSCAASGSISETNAMGWYRQAPGKERELVAAISGSGGSTYADSVKGRFTISRDNAKNTVYLQMNSLKPEDTAVYYCARDRYYTREWYWYRHDHWGQGTQVTVSS”, for which the “polyreactivity (PSR sort gate)” value is “low polyreactivity”.

Turning to “QVQLVESGGGLVQAGGSLRLSCAASGSISGLYAMGWYRQATGKERELVAAITFRDGTTSYADSVKGRFTISRDNAKNTVYLQMNSLKPEDTAVYYCAAVDRDSNSSVPTLDHWGQGTQVTVSS”, the “polyreactivity (PSR sort gate)” value was “low polyreactivity”.

Consider “QVQLVESGGGLVQAGGSLRLSCAASGSISGRYAMGWSRQAPGKEMELVAAISWIGGSTYYADSVKGRFTISRDNAKNTVYLQMISLKPEDTAVYYCYVTIDTRTDPLLVVLYGYDYWGQGTLVTVSS”, for which the “polyreactivity (PSR sort gate)” value is reported as “low polyreactivity”.

In the case of “QVQLVESGGGLVQAGGSLRLSCAASGSISGWYAMGWYRQAPGKERELVADISSIAGSTYYADSVKGRFTISRDNAKNTVYLQMNSLKPEDTAVYYCAADRGFYYEYDYWGQGTQVTVSS”, the “polyreactivity (PSR sort gate)” value is reported as “low polyreactivity”.

For the sequence “QVQLVESGGGLVQAGGSLRLSCAASGSISGYYAMGWYRQAPGKERELVASIRYTGARTYYADSVKGRFTISRDNAKNTVYLQMNSLKPEDTAVYYCNARVDWGWPGYEYDYWGQGTQVTVSS”, the “polyreactivity (PSR sort gate)” value is listed as “low polyreactivity”.

As to “QVQLVESGGGLVQAGGSLRLSCAASGSISKINAMGWYRQAPWKERELVAAINTGDSTYYADSVKGRFTISRDNAKNTVYLLMNSLKPEDTAVYYCAAECSPTGYDYWGQGTQVTVSS”, the “polyreactivity (PSR sort gate)” value is reported as “low polyreactivity”.

On to “QVQLVESGGGLVQAGGSLRLSCAASGSISPVYAMGWYRQAPGKERELVAAYADSVKGRFTISRDNAKNTVYLQMNSLIPEDTAVYYCNVVETSQELGWQAFDYWGQGTQVTVSS”, for which the “polyreactivity (PSR sort gate)” value is on record as “low polyreactivity”.

Take “QVQLVESGGGLVQAGGSLRLSCAASGSISTPYTMGWYRQAPGKERELVAAISWIGDTTSYADSVKGRFTISRDNAKNTVYLQMHSLKPEETAVYYCNAEHRGYDYWGQGTQVTVSS”: the “polyreactivity (PSR sort gate)” value was “low polyreactivity”.

Take “QVQLVESGGGLVQAGGSLRLSCAASGSISTVYAMGWYRQAPGKEMELVAAISWSGGSTYYADSVKGRFTISRDNAKNTVYLQMNSLKPEDTAVYYCAAEGYLVGSRWGPRYGDYWGQGTQVTVSS”: the “polyreactivity (PSR sort gate)” value is given as “high polyreactivity”.

As for “QVQLVESGGGLVQAGGSLRLSCAASGSISVANAMGWYRQAPGKERELVAAITDSGDDTYYADSVKGRFTISRDTAKNTVYLQMNSLKPEDTAVYYCAVEAWSVPPYDYWGQGTQVTVSS”, the “polyreactivity (PSR sort gate)” value is given as “low polyreactivity”.

As for “QVQLVESGGGLVQAGGSLRLSCAASGSISVFYAMGWYRQAPGKEREFVAAISWRGGRTYYEDSVKARFTISRDNANNTVYLQMNSLKPEDTAVYYCAKDIVRGRSSRYDYWGQGTQVTVSS”, the “polyreactivity (PSR sort gate)” value is given as “high polyreactivity”.

In the case of “QVQLVESGGGLVQAGGSLRLSCAASGSISVLNAMGWYRQAPGKERELVAAISRSGTRTYYADSVKGRFTLSRDNAKNTVYLQMNSLKPEDTAVYYCNALHRARLFGHYPYESWGQGTQVTVSS”, the “polyreactivity (PSR sort gate)” value is “high polyreactivity”.

Consider “QVQLVESGGGLVQAGGSLRLSCAASGSISVRNVMGWYRQAPGKERELVATIRRTGGSTSYADSVKGRFTISRDNAKNTVYLQLNSLKPEDTAVYDCADVRYTTYRRYEYWGQGTQVTVSS”, for which the “polyreactivity (PSR sort gate)” value is “low polyreactivity”.

In the case of “QVQLVESGGGLVQAGGSLRLSCAASGSISVVNMGWYRQAPGKERELVASITSSGSTTYADSVKGRFTISRDNAKNTVYLQMNSLKPEDTAGYYCAASSTGYGGSTYYYWGQGTQVTVSS”, the “polyreactivity (PSR sort gate)” value was “low polyreactivity”.

Consider “QVQLVESGGGLVQAGGSLRLSCAASGSISYRYDMGWYRQSPGKERELVATIRSGGSTNYADSVKGRFTISRDNAKNTVYLQMNSLKPEDTAVYYCAARLYARKKLHFSADSDYWGQGSQVTVSS”, for which the “polyreactivity (PSR sort gate)” value is listed as “low polyreactivity”.

Consider “QVQLVESGGGLVQAGGSLRLSCAASGSIVGIYVMGWYRQAPGKERELVAGISPRGGSTYYADSVKGRFTISRDYAKNTVYLQMNSLKPEDTAVYYCAAVPASFRYPMYYLGQGTQVTVSS”, for which the “polyreactivity (PSR sort gate)” value is given as “low polyreactivity”.

With “QVQLVESGGGLVQAGGSLRLSCAASGSIVKHYAMGWYRQAPGKERKLVATITRSGRTNYADSVKGRFTISRDNAKNTVYLQMNSLKPEDTAVYYCNTVRGGQSPHPVRYGYWGQGTQVTVSS”, the “polyreactivity (PSR sort gate)” value was “high polyreactivity”.

For “QVQLVESGGGLVQAGGSLRLSCAASGSIVRYNTMGWYRQAPGKERELVASIRIGGSTYYADSVKGRFTISRDNAKNTVYLQMNSLKAEDTAVYYCAVRPYRSAGGSVTRGAYYYWGQGTQVTVSS”, the “polyreactivity (PSR sort gate)” value is “high polyreactivity”.

In the case of “QVQLVESGGGLVQAGGSLRLSCAASGSIVYYAMGWYRQAPGKERELVAAINTSGGSTYYADSVKGRFTISRDNAKNTVYLQMNSLKPEDTAVYYCAAVYVGYITGFKRGYWGQGTQVTVSS”, the “polyreactivity (PSR sort gate)” value is recorded as “high polyreactivity”.

Consider “QVQLVESGGGLVQAGGSLRLSCAASGSIYDSYDMGWYRQAPGKERELVAAITSGGSTNYADSVKGRFTISRDNAKITVYLQMNSLKPEDTAVYYCAAYYWYPVYYGYDYWGQGTQVTVSS”, for which the “polyreactivity (PSR sort gate)” value was “low polyreactivity”.

Turning to “QVQLVESGGGLVQAGGSLRLSCAASGSIYGDNAMGWYRQAPGKERELVAAINYNGGRTYYADSVKGRFTISRDTAKNTVYLQMNSLKPEDTAVYSCAKDNYQAPVQQYPFDYWGQGTQVTVSS”, the “polyreactivity (PSR sort gate)” value is “low polyreactivity”.

With “QVQLVESGGGLVQAGGSLRLSCAASGSIYGYAMGWYRQAPGKERELVAAISGRGGRTYYADSVKGRFTISRDNAKNTVYLQMNSLKPEDTAVYYCNVQWRYPYHYTVDYWGQGTQVTVSS”, the “polyreactivity (PSR sort gate)” value was “high polyreactivity”.

Regarding “QVQLVESGGGLVQAGGSLRLSCAASGSIYGYYAMGWSRQAPGKERELVAAISWSDGSTYYADSVKGRFTISRDNAKNTVYLQMNSLKPEDTAVYYCAARFTPYITSDDGHYDYWGQGTQVTVSS”, the “polyreactivity (PSR sort gate)” value was “low polyreactivity”.

Consider “QVQLVESGGGLVQAGGSLRLSCAASGSIYHYYAMGWYRQAPGKERELVAAISWSGGRTNYADSVKGRFTISRDNAKNTVYLQMNSLKPEDTAVYYCAARARYPNWTYYYWGQGTQVTVSS”, for which the “polyreactivity (PSR sort gate)” value is “high polyreactivity”.

On to “QVQLVESGGGLVQAGGSLRLSCAASGSIYPNYTMGWYRQAPGKERQLVAAITISGGTTYYSDSVKGRFTISRDNAKNTVYLQMISLKPEDTAVYYCADYHRDRNSGFDYWGQGTQVTVSS”, for which the “polyreactivity (PSR sort gate)” value is “high polyreactivity”.

“QVQLVESGGGLVQAGGSLRLSCAASGSIYQNAMGWYRQAPGKQRELVAAITSSGGRTYADSVKGRFTISRDNAKNTVYLQMNSLIPEDTAVYYCAKDSTADELNGFDYWGQGTQVTVSS”: the “polyreactivity (PSR sort gate)” value was “low polyreactivity”.

Turning to “QVQLVESGGGLVQAGGSLRLSCAASGSIYRRNAMGWYRKAPRKERELVAAISSNGGSTYYADSVKGRFTISRDNAMNTVYLQMNSLKPEDSAVYYCAASPSGWRYDYWGQGTQVTVSS”, the “polyreactivity (PSR sort gate)” value is recorded as “high polyreactivity”.

On to “QVQLVESGGGLVQAGGSLRLSCAASGSIYRTNAMGWYRQAPGKERELVAAITGSGGSTYYADSVKGRFTISRDNAKNTVYLQMNSLKPEDTAVYYCAAEFGSFVSPYNYYYWGQGTQVTVSS”, for which the “polyreactivity (PSR sort gate)” value was “low polyreactivity”.

With “QVQLVESGGGLVQAGGSLRLSCAASGSIYRYAMGWYRQAPGKEREFVAAITGGSGSTYYADSVKGRFTISRDNAKNTVYLQMNSLKPEDTAVYYCAASIWRGLTPLLIGFDYWGQGTQVTVSS”, the “polyreactivity (PSR sort gate)” value is on record as “high polyreactivity”.

Take “QVQLVESGGGLVQAGGSLRLSCAASGSIYRYNDMGWYRQAPGKERELVATITSGTNTYYADSVKGRFTISRDNAKNTVYLQMNSLKPEDTAVYYCAKSYIAWDGRTFEEMYYWGQGTQVTVSS”: the “polyreactivity (PSR sort gate)” value is “low polyreactivity”.

Take “QVQLVESGGGLVQAGGSLRLSCAASGSIYRYYDMGWYRQAPGKERELVAAITYSGGGTYYADSVKGRFTISRDNAKNTVYLQMNSLKPEDTAVYYCAAEPYYGWKRLDYWGQVTQVTVSS”: the “polyreactivity (PSR sort gate)” value is given as “low polyreactivity”.

In the case of “QVQLVESGGGLVQAGGSLRLSCAASGSIYSHYAMGWYRQAPGKERELVAAITKSGSTTYYADSVKGRFTSSRDNAKNTVYLQMNSLKPEDTAVYDCWGQGTQVTVSS”, the “polyreactivity (PSR sort gate)” value is “low polyreactivity”.

As to “QVQLVESGGGLVQAGGSLRLSCAASGSIYSNAMGWYRPAPGKERELVAAISGSGSTTYYADSVKGRFTISRDNAKNTVYLQMNSLKPEDTAVYYCARGVYGRGRTERYYWGQGTQVIVSS”, the “polyreactivity (PSR sort gate)” value is “high polyreactivity”.

In the case of “QVQLVESGGGLVQAGGSLRLSCAASGSIYSTYAMGWYRQAPGKERELVAAITSDGTYADSVKGRFTISRDNARNTVYLQMNSLKPEDTAVYYCAAYYPYTRHGDYWGQGTQVTVSS”, the “polyreactivity (PSR sort gate)” value is “low polyreactivity”.

On to “QVQLVESGGGLVQAGGSLRLSCAASGSIYTNAMGWYRQAPGKERELVAAISWSGGRTYYADSVKGRFTISRDNAKNTVYLQMNSLKPEDTAVYYCAADYYYSQVAYDYWGQGTQVTVSS”, for which the “polyreactivity (PSR sort gate)” value was “high polyreactivity”.

For “QVQLVESGGGLVQAGGSLRLSCAASGSIYVKGWYRQAPGKERELVAAISTNGGRTYYADSVKGRFTISRDNAKITVYLQLTSLKPEDTAVYYCAVRTTPKTRRFYYWGQGTQVTVSS”, the “polyreactivity (PSR sort gate)” value is “high polyreactivity”.

For “QVQLVESGGGLVQAGGSLRLSCAASGSIYVNAMGWYRQEPGKERELVAVISKSGGSTYYADSVKGRFTISRDNAKNTVYLQMNSLKPEDTAVYYCATRGVSPSRPGYYWGQGTKVTVSS”, the “polyreactivity (PSR sort gate)” value is on record as “high polyreactivity”.

In the case of “QVQLVESGGGLVQAGGSLRLSCAASGSIYWYAMGWYRQAPGKERELVAAISRRGGSTYYADSVKGRFTISRDNDKNTVYLQMNSLKPEDTAVYYCAVGIYGEYDYWGQGTQVTVSS”, the “polyreactivity (PSR sort gate)” value is “high polyreactivity”.

Take “QVQLVESGGGLVQAGGSLRLSCAASGSIYYAMGWYRQAPGKEREFVAAINSGGSTYYADSVKGRFTISRDNAKNTVYLQMNSLKPEDTAVYYCAADVWTPYLMSLKYGYDYWGQGTQVTVSS”: the “polyreactivity (PSR sort gate)” value is on record as “low polyreactivity”.

Regarding “QVQLVESGGGLVQAGGSLRLSCAASGSIYYNAMGWYRQAPGKERELVAGITWSGGSTYYADSVKGRFTISRDNAKNTVYLQMNSLKPEDTAVYYCAADFVYLGTHYGAYDYWGQGTQVTVSS”, the “polyreactivity (PSR sort gate)” value is on record as “low polyreactivity”.
